Data from patent publication US20120207771A1 (MORPHOTEK, published 2012).
One block for each binder: values may come before it.

Assays:
[1] = molecular target: T1, folate receptor alpha (FRα), human (human, UniProt P15328 25-234); test: sandwich EIA, biotin-labeled detector MORAb-003, capture MOV18, row '1-S' (label not explained)
T1 construct: also called FR-alpha; FOLR-1

[2] = molecular target: T1, folate receptor alpha (FRα), human; test: sandwich ECLIA on serum, 9F3 as capture (Pair 1)
Procedure: (§1) FRα levels in the serum of patients with ovarian cancer, patients with lung cancer, and normal controls were assessed. Serum FRα levels were assessed using ECLIA with two different pairs of capture-detector antibodies: Pair 1, in which 9F3 was the capture antibody and 24F12 was the detector antibody, and Pair 2, in which 26B3 was the capture antibody and 19D4 was the detector antibody.
(§2) The FRα pairs were tested with full calibrator curves and 196 individual serums diluted 1:4. In one experiment, 26B3 was used as the capture antibody after CR processing on a plate lot (75 μg/mL, +B, +T) and 19D4 was used as the detector antibody at 1.0 μg/mL. In another experiment, 9F3 was used as the capture antibody and 24F12 was used as the detector antibody at 1.0 μg/mL. Each were CR processed (lot 10070) with an label to protein ratio (L/P) of 13.3. Diluent 100 (Meso Scale Discovery, Gaithersburg, Md.)+human anti-mouse antibody (HAMA)+mIgG was used for samples and calibrator. Diluent 3 (Meso Scale Discovery, Gaithersburg, Md.) was used for detections.
(§3) The following protocol was employed for the ECLIA. Samples were added at 50 μL/well. The samples were shaken for 2 hours and subsequently washed with Phosphate Buffered Saline (PBS) solution with the detergent Tween 20 (PBST). […] Finally, the electrochemiluminescence (ECL) emission of the samples was read with 2×MSD® Buffer T.

[3] = molecular target: T1, folate receptor alpha (FRα), human; test: sandwich ECLIA on serum, 24F12 as detector (Pair 1)
Procedure: as §1, §2, §3

[4] = molecular target: T1, folate receptor alpha (FRα), human; test: sandwich ECLIA on serum, 26B3 as capture (Pair 2)
Procedure: as §1, §2, §3

[5] = molecular target: T1, folate receptor alpha (FRα), human; test: sandwich ECLIA on serum, 19D4 as detector (Pair 2)
Procedure: as §1, §2, §3

T1 sequence (P15328 25-234 limits assumed): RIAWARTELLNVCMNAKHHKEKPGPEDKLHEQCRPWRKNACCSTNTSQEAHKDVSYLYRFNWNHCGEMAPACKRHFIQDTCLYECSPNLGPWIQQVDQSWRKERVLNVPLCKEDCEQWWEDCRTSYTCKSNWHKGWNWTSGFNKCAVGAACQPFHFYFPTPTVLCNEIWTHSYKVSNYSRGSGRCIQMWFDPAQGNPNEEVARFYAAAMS

binding result [1]: binds
B1: MORAb-003 antibody (antibody, human IgG1, kappa, V domains shown)
VH: EVQLVESGGGVVQPGRSLRLSCSASGFTFSGYGLSWVRQAPGKGLEWVAMISSGGSYTYYADSVKGRFAISRDNAKNTLFLQMDSLRPEDTGVYFCARHGDDPAWFAYWGQGTPVTVSS
VL: DIQLTQSPSSLSASVGDRVTITCSVSSSISSNNLHWYQQKPGKAPKPWIYGTSNLASGVPSRFSGSGSGTDYTFTISSLQPEDIATYYCQQWSSYPYMYTFGQGTKVEIKR
notes: Used labeled with ruthenium chelate (ECLIA) or biotin (EIA) as detector, or unlabeled as capture antibody

binding result [2]: binds
B2: 9F3.H9.H3.H3.B5.G2 antibody (antibody, mouse IgG2a, V domains shown)
VH: ESGPGLVRPSQSLSLTCSVTGYSITSGYYWNWIRQFPGSRLEWMGYIKSDGSNNYNPSLKNRISITRDTSKNQFFLKLNSVTTEDTATYFCTREWKAMDYWGQGTSVTVSS
VL: PAIMSASPGEKVTMTCRASSTVSYSYLHWYQQKSGASPQLWIYGTSNLASGVPARFSGSGSGTSYSLTISSVEAEDAATYYCQQYSGYPLTFGAGTKLELKR
notes: ATCC PTA-11887

binding result [3]: binds
B3: 24F12.B1 antibody (antibody, mouse IgG1, V domains shown)
VH: SGGGLVRPGGSLKLSCAASGFTFSSYAMSWVRQSPEKRLEWVAEIGSGGSYTYYPDTVTGRFTISRDNAKSTLYLEMSSLRSEDTAIYYCARETTAGYFDYWGQGTTLTVSS
VL: TSSLSASLGDRVTISCSASQGINNFLNWYQQKPDGTVKLLIYYTSSLHSGVPSRFSGSGSGTDYSLTISNLEPEDIAIYYCQHFSKLPWTFGGGTKLEIKR
notes: ATCC PTA-11886

binding result [4]: binds
B4: 26B3.F2 antibody (antibody, mouse IgG1, V domains shown)
VH: GPELVKPGASVKISCKASDYSFTGYFMNWVMQSHGKSLEWIGRIFPYNGDTFYNQKFKGRATLTVDKSSSTAHMELRSLASEDSAVYFCARGTHYFDYWGQGTTLTVSS
VL: PASLSASVGETVTITCRTSENIFSYLAWYQQKQGISPQLLVYNAKTLAEGVPSRFSGSGSGTQFSLKINSLQPEDFGSYYCQHHYAFPWTFGGGSKLEIKR
notes: ATCC PTA-11885

binding result [5]: binds
B5: 19D4.B7 antibody (antibody, mouse IgG2a, V domains shown)
VH: GAELVKPGASVKLSCTASGFNIKHPYMHWVKQRPDQGLEWIGRIDPANGNTKYDPKFQGKATITADTSSNTAYLQLSSLTSEDTAVYYCGREEVADYTMDYWGQGTSVTVSS
VL: PASLAVSLGQRATISCRASESVDTYGNNFIHWYQQKPGQPPKLLIYLASNLESGVPARFSGSGSRTDFTLTIDPVEADDAATYYCQQNNGDPWTFGGGTKLEIKR
notes: ATCC PTA-11884
